# Source: patent US8722856B2, “Anti-MUC1 antibody” (National University Corporation Hokkaido University, priority 2008, dated 2014)
# Assays:
# [1] = target: T1, 2,3-ST(DT*R)-20 (Compound No. 2) (Homo sapiens, UniProt P15941); test: Sugar chain specificity, competitive ELISA against Biotin-Tn(DT*R)-100; assay type: binding; details: glycopeptide 2,3-ST (Compound No. 2), reference = 100%
# T1 construct: Synthesis of MUC1 Tn20-mer Glycopeptide; made in house; host or cells: chemical solid-phase synthesis, then enzymatic sialylation
# T1 sequence (P15941 136-155): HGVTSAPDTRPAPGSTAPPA
# Experimental: (§1) Such specificity can be expressed by a difference in cross reactivity. The cross reactivity is obtained by a calculation equation of (IC50 for cancer-associated structure 2,3ST/IC50 for sugar chain structure to be compared)×100(%). As used herein, inclusion of specificity refers to a difference of 2 fold or more.
# (§2) Ten days after cell fusion, screening of a specific antibody-producing cell was performed. ELISA was used in screening is as follows. To each well of a 384-well microtiter plate (manufactured by Nunc) 35 μl of a Tris buffer (50 mM Tris-HCl, pH 7.5) containing 0.35 μg of an anti-mouse IgG antibody (manufactured by Shibayagi Co., Ltd.) was added to immobilize the antibody at 4° C. for 16 hours. After these wells were washed with 90 μl of a washing solution (physiological saline containing 0.01% Tween 20) once, 200 μl of BLOCK ACE (manufactured by Dainippon Sumitomo Pharma Co., Ltd.) was added, and this was allowed to stand at room temperature for 2 hours for blocking (an anti-mouse IgG antibody solid-phased plate). After each well was washed with 90 μl of a washing solution once, 10 μl of a hybridoma culture supernatant, 10 μl of a buffer A (50 mM Tris buffer containing 0.5% bovine serum albumin, 0.01% Tween 80, 0.05% Proclin 150, and 0.15 M. NaCl, pH 7.4), and 10 μl of a buffer A containing 0.01 ng of Biotin-2,3-ST(DT*R)-20 (Compound No. 16 of Table 1) and 2 ng of Streptavidin-HRP (manufactured by PIERCE) were added to perform a reaction at 4° C. for 16 hours. Then, after each well was washed with 90 μl of a washing solution three times, 25 μl of TMB+-Substrate-Chromogen (manufactured by DAKO) was added to develop a color at room temperature for 30 minutes, 25 μl of 0.05 M sulfuric acid was added to stop the reaction, and absorbance was measured at 450 nm. […] Using a mouse monoclonal antibody isotyping ELISA kit (manufactured by BD Bioscience), a subclass of the antibody was determined and, as a result, an isotype of 1B2 was IgG2a.
# (§3) Fifteen (15) μl of a buffer A containing a MUC1 antibody was added to an anti-mouse IgG antibody solid-phased plate and the reaction was allowed to proceed at room temperature for 3 hours. […] Then, after each well was washed with 90 μl of a washing solution three times, 15 μl of TMB+-Substrate-Chromogen (manufactured by DAKO) was added to develop a color at room temperature for 30 minutes, 15 μl of 0.05 M sulfuric acid was added to stop the reaction, and absorbance at 450 nm was measured.
# [2] = target: T2, 2,3-ST(VT*S)-20 (Compound No. 12) (Homo sapiens, UniProt P15941); test: as above; assay type: binding; details: glycopeptide 2,3ST(VT*S) (Compound No. 12)
# T2 construct: Synthesis of MUC1 Tn20-mer Glycopeptide; made in house; host or cells: chemical solid-phase synthesis with enzymatic sialylation
# Experimental: as §1, §2, §3
# [3] = target: T3, 2,3-ST6SL(DT*R)-20 (Compound No. 8) (Homo sapiens, UniProt P15941); test: as above; assay type: binding; details: glycopeptide 2,3ST6SL (Compound No. 8)
# T3 construct: Synthesis of MUC1 Tn20-mer Glycopeptide; made in house; host or cells: chemical solid-phase synthesis (Compound 5), then enzymatic sugar extension
# Experimental: as §1, §2, §3
# [4] = target: T4, 2,3ST6G(DT*R)-20 (Compound No. 6) (Homo sapiens, UniProt P15941); test: as above; assay type: binding; details: glycopeptide 2,3ST6G (Compound No. 6)
# T4 construct: Synthesis of MUC1 Tn20-mer Glycopeptide; made in house; host or cells: chemical solid-phase synthesis (Compound 5), then enzymatic sialylation
# Experimental: as §1, §2, §3
# [5] = target: T5, 2,3ST6L(DT*R)-20 (Compound No. 7) (Homo sapiens, UniProt P15941); test: as above; assay type: binding; details: glycopeptide 2,3ST6L (Compound No. 7)
# T5 construct: Synthesis of MUC1 Tn20-mer Glycopeptide; made in house; host or cells: chemical solid-phase synthesis (Compound 5), then enzymatic sugar extension
# Experimental: as §1, §2, §3
# [6] = target: T6, 40 (Compound No. 13), non-glycosylated (Homo sapiens, UniProt P15941); test: as above; assay type: binding; details: Non-glycosylated peptide (Compound No. 13)
# T6 construct: made in house; host or cells: chemical solid-phase synthesis
# T6 sequence (P15941 136-175): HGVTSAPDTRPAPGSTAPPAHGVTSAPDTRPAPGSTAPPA
# Experimental: as §1, §2, §3
# [7] = target: T7, ST2-6(DT*R)-20 (Compound No. 10) (Homo sapiens, UniProt P15941); test: as above; assay type: binding; details: glycopeptide ST2-6 (Compound No. 10)
# T7 construct: Synthesis of MUC1 Tn20-mer Glycopeptide; made in house; host or cells: chemical solid-phase synthesis
# Experimental: as §1, §2, §3
# [8] = target: T8, T(DT*R)-20 (Compound No. 1) (Homo sapiens, UniProt P15941); test: as above; assay type: binding; details: glycopeptide T (Compound No. 1)
# T8 construct: Synthesis of MUC1 Tn20-mer Glycopeptide; made in house; host or cells: chemical solid-phase synthesis
# Experimental: as §1, §2, §3
# [9] = target: T9, Tn(DT*R)-20 (Compound No. 3) (Homo sapiens, UniProt P15941); test: as above; assay type: binding; details: glycopeptide Tn (Compound No. 3)
# T9 construct: Synthesis of MUC1 Tn20-mer Glycopeptide; made in house; host or cells: chemical solid-phase synthesis
# Experimental: as §1, §2, §3
# [10] = target: T10, dST(DT*R)-20 (Compound No. 11) (Homo sapiens, UniProt P15941); test: as above; assay type: binding; details: glycopeptide dST (Compound No. 11)
# T10 construct: Synthesis of MUC1 Tn20-mer Glycopeptide; made in house; host or cells: chemical solid-phase synthesis with enzymatic sialylation
# Experimental: as §1, §2, §3
# [11] = target: T11, Biotin-Tn(DT*R)-100 (Compound No. 21) (Homo sapiens, UniProt P15941); test: Affinity of antibody, Biacore T100, sensor chip SA; assay type: binding; details: Biotin-Tn(DT*R)-100 solid-phased
# T11 construct: made in house; host or cells: chemical solid-phase synthesis
# T11 sequence (P15941 136-235): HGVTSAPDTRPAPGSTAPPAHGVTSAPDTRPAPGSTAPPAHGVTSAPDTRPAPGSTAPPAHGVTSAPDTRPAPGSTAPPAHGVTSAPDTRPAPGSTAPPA
# Description: Biotin-Tn(DT*R)-100 (Compound No. 21) was solid-phased on a sensor chip SA (manufactured by GE Healthcare), and a dissociation constant of each of the following MUC1 antibody, 1B2, PankoMab (manufactured by GLYCOPOPE) currently at a pre-clinical stage, VU-2G7 (manufactured by MONOSAN) which is an antibody obtained by glycopeptide immunization, O.N.272 (manufactured by SantaCruz), C595 (manufactured by Acris), B416 (manufactured by GeneTex), and VU-3C6 (manufactured by Exalpha Biologicals) was analyzed using Biacore T100, and the result was as shown in the following Table 3.
# [12] = system: human breast cancer tissue; test: Immunological tissue staining; details: formalin-fixed, paraffin-embedded breast cancer tissue
# Description: Immunological tissue staining of the 1B2 antibody to a piece of a human breast cancer tissue and a normal tissue around a breast cancer (BioCahin) which had been formalin-fixed and paraffin-embedded was implemented using the Vectastain elite ABC kit (manufactured by Vector Laboratories) and DAB (manufactured by Roche) according to the attached manual.
molecule,measurement,setting,value
"1B2: mouse monoclonal anti-MUC1 antibody, isotype IgG2a, clone from immunization with 2,3-ST(DT*R)-20 conjugated to BSA (antibody, V domains shown, Antibody 1B2 VH sequence; Antibody 1B2 VL sequence) VH: MEWIWIFLFILSGTAGVQSQVQLQQSGAELARPGASVKLSCKASGYTFTNYGLSWVKQRTGQGLEWIGENHPGSGIIYHNEKFRGKATLTADKSSSTAYVQLSSLTSEDSAVYFCARSSGTRGFAYWGQGTLVTVSA VL: MKLPVRLLVLMFWIPASSSDVLMTQTPLSLPVSLGDQASISCRSSQSIVHSNGNTYLEWYLQKPGQSPKLLIYKVSNRFSGVPDRFSGSGSGTDFTLKISRVEAEDLGVYYCFQGSHGPWTFGGGTKLEIKRA","Cross reactivity letting 2,3-ST to be 100%",[1],100%
same,"Cross reactivity letting 2,3-ST to be 100%",[2],<0.030%
same,"Cross reactivity letting 2,3-ST to be 100%",[3],0.064%
same,"Cross reactivity letting 2,3-ST to be 100%",[4],0.061%
same,"Cross reactivity letting 2,3-ST to be 100%",[5],0.063%
same,"Cross reactivity letting 2,3-ST to be 100%",[6],0.13%
same,"Cross reactivity letting 2,3-ST to be 100%",[7],0.15%
same,"Cross reactivity letting 2,3-ST to be 100%",[8],96%
same,"Cross reactivity letting 2,3-ST to be 100%",[9],81%
same,"Cross reactivity letting 2,3-ST to be 100%",[10],3.0%
same,Kd1,[11],0.00015 s⁻¹
same,ka1,[11],410000 M⁻¹ s⁻¹
same,Kd,[11]; read-out: dissociation constant KD,0.37 nM
same,stained image,[12],recognized
